The record followed here is publication PMC9119680.

Assay in all cases: Co-IP with immunoblot quantification
One test addresses BLOS2 (UniProt Q9CWG9). The settings on record: uninfected cells cultured overnight; IP: BLOS1; parent: est. 100; read off a plot.
The target in the next test is KXD1 (UniProt Q80XH1). The settings on record: uninfected cells cultured overnight; IP: BLOS1; parent: est. 100; read off a plot.
The target of the next test is PALLIDIN (UniProt Q9R0C0). Conditions: uninfected cells cultured overnight; IP: BLOS1; parent: est. 100; read off a plot.
In the next test the target is SNAPIN (UniProt Q9Z266). Conditions: read off a plot.
Sequence of UniProt Q9Z266 (Q9Z266 whole entry): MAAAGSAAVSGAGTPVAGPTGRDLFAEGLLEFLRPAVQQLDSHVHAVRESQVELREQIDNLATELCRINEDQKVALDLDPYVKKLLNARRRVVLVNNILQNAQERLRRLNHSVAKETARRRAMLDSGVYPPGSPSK

Sequence of UniProt Q9CWG9 (Q9CWG9 whole entry): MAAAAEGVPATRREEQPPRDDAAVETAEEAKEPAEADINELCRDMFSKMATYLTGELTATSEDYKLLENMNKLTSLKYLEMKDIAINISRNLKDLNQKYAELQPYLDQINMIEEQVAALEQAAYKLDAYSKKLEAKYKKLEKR
Sequence of UniProt Q9R0C0 (Q9R0C0 whole entry): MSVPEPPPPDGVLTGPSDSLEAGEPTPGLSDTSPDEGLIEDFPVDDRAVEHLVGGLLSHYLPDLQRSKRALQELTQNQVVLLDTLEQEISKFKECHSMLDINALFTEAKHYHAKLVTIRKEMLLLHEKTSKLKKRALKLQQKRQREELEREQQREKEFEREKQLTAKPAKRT
Sequence of UniProt Q80XH1 (Q80XH1 whole entry): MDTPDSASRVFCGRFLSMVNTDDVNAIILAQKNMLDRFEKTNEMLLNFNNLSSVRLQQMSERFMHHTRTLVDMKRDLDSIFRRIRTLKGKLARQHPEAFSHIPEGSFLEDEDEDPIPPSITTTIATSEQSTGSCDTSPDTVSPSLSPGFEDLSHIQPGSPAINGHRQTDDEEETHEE

Turning to “BLOS1 [biogenesis of lysosome-related organelles complex-1 (BLOC-1) subunit 1] (from UniProt O55102) mBloc1s1 (first XAT hexapeptide-repeat motif EALDVH changed to EVVDH or EVDH)”, the percent of parent was 5% in the test with BLOS2; 10% with KXD1; 22% with PALLIDIN; 10% with SNAPIN (uninfected cells cultured overnight, IP: BLOS1, parent: est. 100). In addition, the response in the test with SNAPIN (parent: est. 0.67) was found to be 0.07; in the test with SNAPIN (parent: est. 1.0), 0.18.
